Literature values, collected in publication PMC10531186.

Target: uPA (Mus musculus) (UniProt P06869)
UniProt P06869, sequence (P06869 21-433): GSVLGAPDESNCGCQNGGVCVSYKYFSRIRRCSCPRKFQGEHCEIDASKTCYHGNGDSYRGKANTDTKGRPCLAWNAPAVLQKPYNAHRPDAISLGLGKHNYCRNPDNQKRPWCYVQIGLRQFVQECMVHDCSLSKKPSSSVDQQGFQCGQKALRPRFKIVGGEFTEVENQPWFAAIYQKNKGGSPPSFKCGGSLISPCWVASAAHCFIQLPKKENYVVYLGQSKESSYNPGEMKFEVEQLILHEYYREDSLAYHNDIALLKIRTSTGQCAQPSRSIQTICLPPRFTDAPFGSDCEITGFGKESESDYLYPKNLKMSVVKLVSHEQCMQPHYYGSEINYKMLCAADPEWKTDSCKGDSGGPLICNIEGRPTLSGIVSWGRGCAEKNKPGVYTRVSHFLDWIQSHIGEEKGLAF

Ki: 185 nM
Substance: mupain-1
